The supplement of paper PMC12764529
± gives the half width of the 95% confidence interval.

experiment: folding stability dG unfold (combined trypsin and chymotrypsin); higher = more stable
In short: (§1)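 Designed mini-proteins with no cysteine and under 80 residues were kept only if AlphaFold2 dimer inter-PAE was above 15. In a PA-tagged cDNA display construct, they were digested with trypsin and chymotrypsin and then sequenced. K50 was inferred by Bayesian fitting of counts, and unfolding free energy was derived per protease or combined against a sequence-predicted unfolded-state K50 and a shared folded-state K50.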

Sequence | folding stability dG unfold
SAGKWKVRTIPLPGFSITIWYDPDEGRIRISITMWMWKPKKDPENGKPKQEHRMMTMEAPIPIPPGAPISAG [r5_195_TrROS] | 2.3 ± 0.27 kcal/mol
SAGGSSGSIDRVELLSFDPEKGIALVRFPSFGSIQVIPIPPGKNSLKVKVINKNGEPFEFTFSLPLSAGGSA [r2_132_TrMRF] | 3 ± 0.07 kcal/mol
SAGGSAMTTIVKTEPPTLDEEGNPYIRLTIKFPNGGTTTITLAPSELPQYLADLPPGFEVEEINPLSAGGSA [r15_339_JUSTAS] | 2.65 ± 0.11 kcal/mol
SAGEKPEKPPEVTITITSVKVERLPDGTVVVEVEAEIEVDGVTLTVRARFVYRDGKLFLEVEVRLEPLPSAG [r5_267_TrROS_Hall] | 4.59 ± 0.95 kcal/mol
KKKILIFITGDNPELAERIRKELEELGYDVEVKVVTTPEEMEKAIEEAEKTDIVIVIHLPPALPLSPELAFS [r1_497_TrMRF] | 1.9 ± 0.19 kcal/mol
SAGGSAGGSAGGMILVENPSLNESTVLSKDTPISSFKVPSDNSKVRIIIIYPSNSFVVISSAGGSAGGSAGG [r7_763_JUSTAS] | 1.71 ± 0.088 kcal/mol
SAGGSALAEKAKELALEKGYDPVKVTYDPKTGTLTMTAKPPGGKEVKMTFTIDEDTITITTTPLTKSAGGSA [r15_561_JUSTAS] | 2.49 ± 0.16 kcal/mol
SADSVPIKLTFTFEVPEEIYEAAVKAIEDIFKDLGLEVEFEAKAEPGEEGVKVTVELNLTIPPNNPNLISAG [r14_76_TrMRF] | 3.07 ± 0.16 kcal/mol
SAGGMNISIEPIGRDNDRWYYMITFPGDANEIKDFIEEFLPPGLPIKVKVLEVDPENGHVTVMIEIPRSAGG [r13_491_TrROS] | 3.24 ± 0.058 kcal/mol
SAGGSAGGMPEYRVLDIEIETRPDMTPEEAVEEIRKALEPLGAIRVEAEPLPDGRIRVRVVLPESAGGSAGG [r6_881_TrMRF] | 3.27 ± 0.32 kcal/mol
SAPWVYHVRIEYKGPDGEPVAEHTIMVKTPEALKEQIRKHFGLSPAQIKNIEVEPVIPAEEMNEMQEKGSAG [r14_852_TrROS] | 0.882 ± 0.094 kcal/mol
SAGGPDIKIKWKIEVNPDNGMIWLTMEIEVPNPNGDFYKVRADIYIPIVNPDDGKFPIFIMLEVEPVPSAGG [r13_715_TrROS] | 4.76 ± 0.2 kcal/mol
SAGGSAEEELLKAIKEALEKAKEGETVELEITLEDGSTLRITFDAENGKITVTLPNGEKLELTIEPSAGGSA [r15_977_TrROS_Hall] | 4.23 ± 0.16 kcal/mol
SAGGSAKIKIPKSYTAEILDASYDPETKTVTVKIKLFGKPATATIYPDGTVEIDLPNGKKITIPVGSAGGSA [r15_111_TrMRF] | 2.27 ± 0.099 kcal/mol
SAGGSAGGSAGMTKTITVGDKKVNVTITPLPTPTTKVTITFPDGSTKTVTLPAGTPITLGSAGGSAGGSAGG [r11_525_JUSTAS] | 0.326 ± 0.054 kcal/mol
SAGGSAGGSDEEVEVTLYPVDPSAPDDTVYYAEVTFPNGLVARYRFRKKDGKVEGELVEVKPASAGGSAGGS [r12_1049_TrMRF] | 1.91 ± 0.083 kcal/mol
SAGGSAGGMVIHEIEVESPDPEKAEEEAKARAEEIRKALEEEEGGIPGEVKFVPTPEEDPLLLLSAGGSAGG [r6_23_JUSTAS] | 1.43 ± 0.13 kcal/mol
SAGGMVTITLPEVNVEDPEVAEARMEEIAARLRAAGVTVTSASYDPEKGLATITVSAGGLSAAEVLASAGGS [r8_344_JUSTAS] | 2.47 ± 0.037 kcal/mol
SAGSSMSLPLPEEIEIEIPNPGLSLEEIKKIVADKLGLKIVSVEEEEGRLVFKAENGIPIRVKIEEPGKSAG [r5_350_JUSTAS] | 2.34 ± 0.072 kcal/mol
SAKITFIAPGGKPIVIDIDPNYEVIEVIEFPELGVVLILLRNPETGELYAILITPPDYRPTYIELIPLDSAG [r14_311_TrMRF] | 4.17 ± 0.2 kcal/mol
SAGGSAGGSAGGMVVKIKVDGKTITLSAEELKKNKDLLKELEKKGYKIVSIEVFEPEEESAGGSAGGSAGGS [r10_396_TrROS_Hall] | 1.67 ± 0.08 kcal/mol

experiment: folding stability dG unfold from chymotrypsin proteolysis; higher = more stable
In short: as §1

Sequence | folding stability dG unfold
SAGGGIVIPVPAETARELLEKLAPDGADVTVESLGSLGGGEVYRATFTDPVFGNTVDIEVLVGPEGGSAGGS [r16_486_TrMRF] | 0.301 ± 0.13 kcal/mol
SAGGMTITIPVTESGSLEEALALAERVAEEARAAGLEEVTITVTVYDPANGEVLYTKTRRVPVRPEASAGGS [r8_33_JUSTAS] | 2.274 ± 0.0077 kcal/mol
SAGGSAGGSKKVKIEINVVVPPGMTPEKAKQMAEEFAREIAEAYGGKDVKVKVRIMYIPPDQFSAGGSAGGS [r12_522_TrROS] | 2.19 ± 0.066 kcal/mol
SAGMPAETETTVTITTETIDEKGNLSTKTYTATVRTLPDGRVLVYLENELLLIDPATGEVVAREPNYKPSAG [r14_821_JUSTAS] | 2.264 ± 0.015 kcal/mol
SAGGSAMLVKVTITLKKGGKEYTLEQFVEVNPPDLKIEIPPEIKEKGWEIVDIEVEEITPEEAERKSAGGSA [r15_853_JUSTAS] | 3.19 ± 0.039 kcal/mol
SAGGSAIFVVKIEPPNGNPITFMFWFKTPEEAESQVEEIAEQLPPDWKVEVEYIPAEDLKNGKPFFSAGGSA [r15_469_TrROS] | 2.13 ± 0.043 kcal/mol
SAGGMKTYTVTVEREVPDPSSDKWVYSTETLTIPYNVDPKTGTTPEEVAEELKAALPPDVLRVEFTDESAGG [r13_335_JUSTAS] | 0.468 ± 0.21 kcal/mol
SAGGSAGGSAGGSAKITIEYNPETNTLTVTITLENGEKVEITVPPNATLEEIEELAKKASAGGSAGGSAGGS [r4_205_TrROS_Hall] | 2.49 ± 0.11 kcal/mol
SAGGSAGGEEIAKKLGIEKAEIVEVKDNKITLKVKLKNGEELKIELYIDKKTKEIKIVKIEKVPSAGGSAGG [r6_526_TrROS_Hall] | 3.11 ± 0.075 kcal/mol
SAGGSAGGSAGGPDWRMISIPITFRFYVMEYDGGKPKKAEPIHEHPIPIMIMFPPDALKSAGGSAGGSAGGS [r10_492_TrROS] | 3.35 ± 0.014 kcal/mol
SAGGSAGGSAKTYEVKITVTNPNGEKKEITLEVEAETEEELLAAIKALAPPGAKVEIEIREVSAGGSAGGSA [r18_60_TrROS_Hall] | 3.67 ± 0.075 kcal/mol
SAGGRVRLEERVLPDGRRVLVVHLPDRPLEVVIPLEGLALPPDQPVLVRGEGGVRELPIGDLLPEALFSAGG [r13_97_TrMRF] | 0.658 ± 0.053 kcal/mol
SAGGSAGGSAGDNIYVFEIDIKIKPRKDPDGKWQPEIEINIKIKDIKPIPPNDPELKDLLSAGGSAGGSAGG [r11_236_TrROS] | 1.99 ± 0.036 kcal/mol
SMVEIKVEKKEDGTVKITIVAPLEKAEEIAKKLAEELGKEVKIVKIEKKKVKVNGEERELVKIEIEIRLPSA [r9_431_TrROS_Hall] | 2.23 ± 0.31 kcal/mol
SAGMKVTTFTTPTRTVTVTLTPDGTVTVTVTDPSGNPTVTAPDGTPVASTTAPDGTTTFTLDPALFAAASAG [r5_457_JUSTAS] | 0.965 ± 0.1 kcal/mol
SAGGSAGGSAGAEELAKKLKELGFEVKVEKNEDGSLTLTVKFKPKPKPKKVVTKDGKEVKSAGGSAGGSAGG [r17_503_TrROS_Hall] | 1.9 ± 0.11 kcal/mol
SAGGSAGGSAVSPDETVPIKIDGKEVTVTFNGSKATITFPDGTVIEGTVSTEGSKLTLDLNLSAGGSAGGSA [r18_172_JUSTAS] | 1.26 ± 0.059 kcal/mol
SAKKKVIEVELPPDAKVVTIKLEGKGVEITFVEVDGKLVITVRYKDDPSKTVTIVVKTKEEADALLKALSAG [r14_716_TrROS_Hall] | 1.85 ± 0.068 kcal/mol
SANDDDWVTVIFEIPIVRKDPDGKPEKHPFRLMVQVHPDGRVEINIMYPNGRPIASQTVPPGQTLEDFISAG [r14_559_TrROS] | 3.84 ± 0.077 kcal/mol
KSKEEQKEQQEEQQKPPPVEIKVEVEVVKSPNGNPYFQFNVEYYDPGDGEPIGEITISVPPDDVDELADEFS [r1_415_TrROS] | 2.63 ± 0.25 kcal/mol
SAGGEAEVVEPEEKLEIVDKETGKKITVYKVKNKETGEEVVLVEIEKNGKKYTVLMTKDELEALLKKSAGGS [r16_603_TrROS_Hall] | 3.29 ± 0.057 kcal/mol

Sequence | folding stability dG unfold
SAGKWKVRTIPLPGFSITIWYDPDEGRIRISITMWMWKPKKDPENGKPKQEHRMMTMEAPIPIPPGAPISAG [r5_195_TrROS] | 2.51 ± 0.29 kcal/mol
SAGGSSGSIDRVELLSFDPEKGIALVRFPSFGSIQVIPIPPGKNSLKVKVINKNGEPFEFTFSLPLSAGGSA [r2_132_TrMRF] | 3.1 ± 0.043 kcal/mol
SAGGSAMTTIVKTEPPTLDEEGNPYIRLTIKFPNGGTTTITLAPSELPQYLADLPPGFEVEEINPLSAGGSA [r15_339_JUSTAS] | 2.69 ± 0.038 kcal/mol
SAGEKPEKPPEVTITITSVKVERLPDGTVVVEVEAEIEVDGVTLTVRARFVYRDGKLFLEVEVRLEPLPSAG [r5_267_TrROS_Hall] | 5.47 ± 0.24 kcal/mol
KKKILIFITGDNPELAERIRKELEELGYDVEVKVVTTPEEMEKAIEEAEKTDIVIVIHLPPALPLSPELAFS [r1_497_TrMRF] | 0.709 ± 0.12 kcal/mol
SAGGSAGGSAGGMILVENPSLNESTVLSKDTPISSFKVPSDNSKVRIIIIYPSNSFVVISSAGGSAGGSAGG [r7_763_JUSTAS] | 1.55 ± 0.14 kcal/mol
SAGGSALAEKAKELALEKGYDPVKVTYDPKTGTLTMTAKPPGGKEVKMTFTIDEDTITITTTPLTKSAGGSA [r15_561_JUSTAS] | 2.95 ± 0.078 kcal/mol
SADSVPIKLTFTFEVPEEIYEAAVKAIEDIFKDLGLEVEFEAKAEPGEEGVKVTVELNLTIPPNNPNLISAG [r14_76_TrMRF] | 3.31 ± 0.096 kcal/mol
SAGGMNISIEPIGRDNDRWYYMITFPGDANEIKDFIEEFLPPGLPIKVKVLEVDPENGHVTVMIEIPRSAGG [r13_491_TrROS] | 3.58 ± 0.043 kcal/mol
SAGGSAGGMPEYRVLDIEIETRPDMTPEEAVEEIRKALEPLGAIRVEAEPLPDGRIRVRVVLPESAGGSAGG [r6_881_TrMRF] | 2.45 ± 0.25 kcal/mol
SAPWVYHVRIEYKGPDGEPVAEHTIMVKTPEALKEQIRKHFGLSPAQIKNIEVEPVIPAEEMNEMQEKGSAG [r14_852_TrROS] | 1.27 ± 0.12 kcal/mol
SAGGPDIKIKWKIEVNPDNGMIWLTMEIEVPNPNGDFYKVRADIYIPIVNPDDGKFPIFIMLEVEPVPSAGG [r13_715_TrROS] | 4.74 ± 0.25 kcal/mol
SAGGSAEEELLKAIKEALEKAKEGETVELEITLEDGSTLRITFDAENGKITVTLPNGEKLELTIEPSAGGSA [r15_977_TrROS_Hall] | 4.37 ± 0.18 kcal/mol
SAGGSAKIKIPKSYTAEILDASYDPETKTVTVKIKLFGKPATATIYPDGTVEIDLPNGKKITIPVGSAGGSA [r15_111_TrMRF] | 2.62 ± 0.04 kcal/mol
SAGGSAGGSAGMTKTITVGDKKVNVTITPLPTPTTKVTITFPDGSTKTVTLPAGTPITLGSAGGSAGGSAGG [r11_525_JUSTAS] | 0.176 ± 0.064 kcal/mol
SAGGSAGGSDEEVEVTLYPVDPSAPDDTVYYAEVTFPNGLVARYRFRKKDGKVEGELVEVKPASAGGSAGGS [r12_1049_TrMRF] | 1.95 ± 0.11 kcal/mol
SAGGSAGGMVIHEIEVESPDPEKAEEEAKARAEEIRKALEEEEGGIPGEVKFVPTPEEDPLLLLSAGGSAGG [r6_23_JUSTAS] | 0.834 ± 0.075 kcal/mol
SAGGMVTITLPEVNVEDPEVAEARMEEIAARLRAAGVTVTSASYDPEKGLATITVSAGGLSAAEVLASAGGS [r8_344_JUSTAS] | 2.455 ± 0.015 kcal/mol
SAGSSMSLPLPEEIEIEIPNPGLSLEEIKKIVADKLGLKIVSVEEEEGRLVFKAENGIPIRVKIEEPGKSAG [r5_350_JUSTAS] | 2.376 ± 0.013 kcal/mol
SAKITFIAPGGKPIVIDIDPNYEVIEVIEFPELGVVLILLRNPETGELYAILITPPDYRPTYIELIPLDSAG [r14_311_TrMRF] | 4.29 ± 0.15 kcal/mol
SAGGSAGGSAGGMVVKIKVDGKTITLSAEELKKNKDLLKELEKKGYKIVSIEVFEPEEESAGGSAGGSAGGS [r10_396_TrROS_Hall] | 1.71 ± 0.027 kcal/mol
